Measured values taken from patent US20060014927A1 (US Dept. of Health and Human Services, published 2006).
Bridges are numbered along the chain shown (N, C = ends). [ ]: non-standard residue; d: D form. Gla = N[C@@H](CC(C(=O)O)C(=O)O)C(=O)O; Aad = N[C@@H](CCCC(=O)O)C(=O)O

B1: cyclo(CH2CO-Adi1-Leu2-Tyr3-Glu4-Asn5-Val6-Gly7-Met8-Tyr9-Cys)-amide (peptide)
peptide: {CH2CO}-[Aad]LYENVGMYC-NH2
modifications: thioether N-10
notes: Synthetic thioether-cyclised, non-phosphorylated peptide
B2: cyclo(CH2CO-Gla1-Leu2-Tyr3-Glu4-Asn5-Val6-Gly7-Met8-Tyr9-Cys)-amide (peptide)
peptide: {CH2CO}-[Gla]LYENVGMYC-NH2
modifications: thioether N-10
SMILES: CSCC[C@@H]1NC(=O)CNC(=O)[C@H](C(C)C)NC(=O)[C@H](CC(N)=O)NC(=O)[C@H](CCC(=O)O)NC(=O)[C@H](Cc2ccc(O)cc2)NC(=O)[C@H](CC(C)C)NC(=O)[C@H](CC(C(=O)O)C(=O)O)NC(=O)CSC[C@@H](C(N)=O)NC(=O)[C@H](Cc2ccc(O)cc2)NC1=O
notes: Synthetic thioether-cyclised, non-phosphorylated peptide (L = S)
B3: cyclo(CH2CO-Adi1-Leu2-Tyr3-Adi4-Asn5-Val6-Gly7-Met8-Tyr9-Cys)-amide (peptide)
peptide: {CH2CO}-[Aad]LY[Aad]NVGMYC-NH2
modifications: thioether N-10
notes: as for B1
B4: cyclo(CH2CO-Gla1-Leu2-Tyr3-Glu4-Asn5-Val6-Gly7-Met8-Tyr9-Cys)-NH-Ala-Ala-Val-Ala-Leu-Leu-Pro-Ala-Val-Leu-Leu-Ala-Leu-Leu-Ala-Pro (peptide)
peptide: {CH2CO}-[Gla]LYENVGMYCAAVALLPAVLLALLAP-NH2
modifications: thioether N-10; not fully specified; printed as cyclo(CH2CO-Gla1-Leu2-Tyr3-Glu4-Asn5-Val6-Gly7-Met8-Tyr9-Cys)-NH-Ala-Ala-Val-Ala-Leu-Leu-Pro-Ala-Val-Leu-Leu-Ala-Leu-Leu-Ala-Pro

Tests used:
[1] = target: T1, recombinant GST-Grb2 SH2 protein (UniProt P62993 60-152); test: Biacore SPR competition; inhibitor mixed with GST-Grb2 SH2 (150-250 nM), binding to immobilised biotin-SHC(pTyr-317)-9-mer as competitor
T1 construct: not shown: glutathione S-transferase (GST) fusion partner
T1 sequence (P62993 60-152): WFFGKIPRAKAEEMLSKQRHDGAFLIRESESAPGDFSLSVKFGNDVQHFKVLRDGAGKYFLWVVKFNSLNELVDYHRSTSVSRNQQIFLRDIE
Procedure: (§1) The competitive binding affinity of the present inventive compounds was assessed using Biacore Surface Plasmon Resonance (SPR) methods utilizing a Biacore 2000 instrument. […] Specifically, competitive binding assays were carried out at 5 μl/min flow rate, with GST-Grb2-SH2 (150-250 nM) and a cyclic peptide inhibitor (10 nM-2 mM) in phosphate-buffered saline (PBS), pH 7.4, containing 0.01% P-20 surfactant (Biacore, Inc., Piscataway, N.J.) for a total of 10 min. The change in response units (RU) at equilibrium was measured from the […] and the percent of control (no added peptide) was calculated. […] The results represent the mean value of at least two independent experiments.

[2] = target: T1, recombinant GST-Grb2 SH2 protein; test: comparison with the Glu1 analogue as reference; assay not named in the sentence (Biacore competition of Example 7 understood)
Procedure: as §1

Grb2 adapter protein = target: T2, Grb2 adapter protein (UniProt P62993 1-217); test: MDA-MB-453 lysates incubated with inhibitor; anti-Grb2 co-immunoprecipitation, anti-pTyr Western blot; p185erbB-2 as competitor
T2 construct: Endogenous protein in cell lysates or whole cells
T2 sequence (P62993 whole entry): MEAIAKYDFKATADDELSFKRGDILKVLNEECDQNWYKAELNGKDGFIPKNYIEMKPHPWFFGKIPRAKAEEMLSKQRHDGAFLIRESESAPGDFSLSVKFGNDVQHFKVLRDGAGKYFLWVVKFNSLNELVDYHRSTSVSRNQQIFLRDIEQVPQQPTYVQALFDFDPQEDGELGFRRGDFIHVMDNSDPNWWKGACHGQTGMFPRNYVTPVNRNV
Procedure: Cell lysates were prepared from the serum-treated erbB-2-overexpressing breast cancer cell line MDA-MB-453 using 1% Triton X-100 in PBS containing 0.2 mM NaVO₄. Lysates were incubated with the present inventive cyclic peptide inhibitors specified in Example 1 and Example 12, at concentrations of 0.1, 0.4, 2, 10 and 50 μM. No inhibitor was used as a control. […] Grb2 and associated Grb2-binding proteins were immunoprecipitated from each lysate (500 μg) with anti-Grb2 antibodies and collected using protein A Sepharose using methods previously described. Immunoprecipitated proteins were separated by SDS-PAGE on 8-16% gradient gels (Novex). pTyr-containing proteins were detected by Western blotting using anti-phosphotyrosine antibodies (Upstate Biotechnology Inc.). Previous experiments have shown that a major tyrosine phosphorylated protein in MDA-MB-453 cells is p185^erbB-2, which is overexpressed as a consequence of gene amplification. […] A dose-dependent inhibition of the p185^erbB-2 receptor association with the Grb2 adapter protein was observed.

Row | Binder | IC50 [1] | fold improvement of binding efficacy over Glu^1 [2] | IC50 (Grb2 adapter protein)
1 | B1 | 3450 nM | 6 fold | –
2 | B2 | 640 nM | 31 fold | 2000 nM
3 | B3 | 3050 nM | – | –
4 | B4 | – | – | 2000 nM
